# Tests used:
# [1] = biological target: GST-ZZUD (ZU5-ZU5-UPA-DD spectrin-binding domain of erythrocyte ankyrin, wild type) (human) (UniProt P16157); experiment: pull-down; sedimentation assay: GST-ZZUD or GST-ZZUDL1340P adsorbed on Glutathione Sepharose 4B; His(6)GFP–AnkBD 0–2 µM; 50 mM Tris–HCl, 150 mM NaCl, 2 mM DTT, pH 7.5; 30 min, room temperature; eluted with 75 mM GSH, bound GFP read by fluorescence; bare resin subtracted; one site-specific binding fit
# [2] = biological target: His(6)GFP–AnkBD (ankyrin-binding domain of erythrocyte β-spectrin, repeats 14–15) (human) (UniProt P11277); experiment: BLI; Octet K2; His(6)GFP–AnkBD loaded on Ni2+-NTA biosensor tips; GST-ZZUD or GST-ZZUDL1340P 0–2.5 µM in solution; 30 °C; 50 mM Tris–HCl, 150 mM NaCl, 2 mM DTT, pH 7.5; association 300 s, dissociation 300 s; curves compared by amplitude
# Sequence of UniProt P11277 (P11277 whole entry, the tested form may be a part): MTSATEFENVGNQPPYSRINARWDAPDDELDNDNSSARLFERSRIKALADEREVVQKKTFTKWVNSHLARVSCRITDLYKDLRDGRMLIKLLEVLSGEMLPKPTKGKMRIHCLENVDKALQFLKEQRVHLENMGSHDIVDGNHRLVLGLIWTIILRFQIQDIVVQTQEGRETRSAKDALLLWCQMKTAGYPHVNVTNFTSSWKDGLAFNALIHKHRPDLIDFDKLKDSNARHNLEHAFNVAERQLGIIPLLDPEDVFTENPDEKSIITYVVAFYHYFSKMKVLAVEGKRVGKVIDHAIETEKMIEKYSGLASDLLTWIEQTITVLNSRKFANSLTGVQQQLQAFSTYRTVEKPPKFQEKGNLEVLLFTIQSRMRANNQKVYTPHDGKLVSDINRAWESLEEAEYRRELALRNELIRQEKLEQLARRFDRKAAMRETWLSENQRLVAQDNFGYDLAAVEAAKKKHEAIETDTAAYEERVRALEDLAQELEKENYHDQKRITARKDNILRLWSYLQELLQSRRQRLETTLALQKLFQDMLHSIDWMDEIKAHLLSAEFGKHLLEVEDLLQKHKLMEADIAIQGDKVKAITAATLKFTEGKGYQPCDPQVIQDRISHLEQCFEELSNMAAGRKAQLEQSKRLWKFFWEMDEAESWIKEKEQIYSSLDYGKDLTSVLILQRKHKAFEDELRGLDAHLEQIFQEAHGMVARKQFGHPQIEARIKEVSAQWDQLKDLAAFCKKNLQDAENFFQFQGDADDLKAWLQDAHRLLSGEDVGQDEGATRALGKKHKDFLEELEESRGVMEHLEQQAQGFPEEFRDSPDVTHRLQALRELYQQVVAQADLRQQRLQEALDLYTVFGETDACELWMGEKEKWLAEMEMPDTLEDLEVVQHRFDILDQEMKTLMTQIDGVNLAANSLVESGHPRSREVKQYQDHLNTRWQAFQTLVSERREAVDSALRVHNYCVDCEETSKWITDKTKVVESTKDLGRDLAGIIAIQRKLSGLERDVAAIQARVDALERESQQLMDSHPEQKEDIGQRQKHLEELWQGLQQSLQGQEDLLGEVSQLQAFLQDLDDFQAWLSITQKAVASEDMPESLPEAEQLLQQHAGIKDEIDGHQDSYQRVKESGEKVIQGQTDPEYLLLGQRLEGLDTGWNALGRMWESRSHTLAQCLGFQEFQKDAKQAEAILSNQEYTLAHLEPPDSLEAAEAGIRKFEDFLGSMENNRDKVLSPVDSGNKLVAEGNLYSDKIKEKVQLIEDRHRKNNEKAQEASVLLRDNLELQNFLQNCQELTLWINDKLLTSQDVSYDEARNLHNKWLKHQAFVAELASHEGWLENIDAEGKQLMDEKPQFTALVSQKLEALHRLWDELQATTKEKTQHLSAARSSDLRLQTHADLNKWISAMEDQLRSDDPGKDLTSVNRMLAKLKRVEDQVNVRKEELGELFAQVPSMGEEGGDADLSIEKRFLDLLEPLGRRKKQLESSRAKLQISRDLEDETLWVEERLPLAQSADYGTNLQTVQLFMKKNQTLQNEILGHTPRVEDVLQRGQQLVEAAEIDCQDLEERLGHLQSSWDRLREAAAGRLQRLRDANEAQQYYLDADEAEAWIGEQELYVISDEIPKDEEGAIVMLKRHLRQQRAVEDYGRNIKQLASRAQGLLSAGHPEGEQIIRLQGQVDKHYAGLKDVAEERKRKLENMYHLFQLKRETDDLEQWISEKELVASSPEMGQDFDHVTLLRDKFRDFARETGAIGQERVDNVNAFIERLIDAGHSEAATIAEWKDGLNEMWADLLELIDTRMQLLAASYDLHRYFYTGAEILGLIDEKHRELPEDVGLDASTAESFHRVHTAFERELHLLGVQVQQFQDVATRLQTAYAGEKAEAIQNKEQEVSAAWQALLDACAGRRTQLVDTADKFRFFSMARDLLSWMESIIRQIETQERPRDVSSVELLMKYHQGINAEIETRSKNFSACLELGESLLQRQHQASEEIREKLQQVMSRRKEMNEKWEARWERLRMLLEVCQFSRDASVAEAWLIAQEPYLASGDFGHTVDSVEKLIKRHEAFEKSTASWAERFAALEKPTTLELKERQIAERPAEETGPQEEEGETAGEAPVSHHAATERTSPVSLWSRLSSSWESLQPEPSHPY
Kd [1],fold decrease in the binding response compared to the WT [2],Molecule
1040 nM,–,"His(6)GFP–AnkBD (ankyrin-binding domain of erythrocyte β-spectrin, repeats 14–15) (from UniProt P11277 1-2137) (domain or fragment)"
–,3 fold,GST-ZZUDL1340P (ZZUD domain of erythrocyte ankyrin with the spherocytosis-related L1340P substitution) (domain or fragment) TGFLVSFMVDARGGSMRGSRHNGLRVVIPPRTCAAPTRITCRLVKPQKLSTPPPLAEEEGLASRIIALGPTGAQFLSPVIVEIPHFASHGRGDRELVVLRSENGSVWKEHRSRYGESYLDQILNGMDEELGSLEELEKKRVCRIITTDFPLYFVIMSRLCQDYDTIGPEGGSLKSKLVPLVQATFPENAVTKRVKLALQAQPVPDELVTKLLGNQATFSPIVTVEPRRRKFHRPIGLRIPLPPSWTDNPRDSGEGDTTSLRLLCSVIGGTDQAQWEDITGTTKLVYANECANFTTNVSARFWLSDCPRTAEAVNFATLLYKELTAVPYMAKFVIFAKMNDPREGRLRCYCMTDDKVDKTLEQHENFVEVARSRDIEVLEGMSLFAELSGNLVPVKKAAQQRSFHFQSFRENRLAMPVKVRDSSREPGGSPSFLRKAMKYEDTQHILCHLNITMPPCAKGSGAEDRRRTPTPLALRYSILSESTPGSLSGTEQAEMKMAVISEHLGLSWAELARELQFSVEDINRIRVENPNSLLEQSVALLNLWVIREGQNANMENLYTALQSIDRGEIVNMLEGSGRQSRN
